Like-named read-outs stand apart in the source and are kept apart here.
Assays:
[1] = molecular target: T1, WT SARS2 RBD (SARS-CoV-2, UniProt P0DTC2 321-591); assay: SPR
[2] = molecular target: SARS1 RBD (SARS-CoV-1); assay: SPR
[3] = molecular target: T1, WT SARS2 RBD; assay: SPR; remark: listed apart in the source
[4] = molecular target: SARS1 RBD (SARS-CoV-1); assay: SPR; remark: listed apart in the source
[5] = molecular target: T1, WT SARS2 RBD; assay: ELISA

Binder | koff [1] | koff [2] | koff [3] | koff [4] | EC50 [5]
aSA3 (VHH) VHH: QVQLVESGGGLVQPGGSLRLSCAASGFTSDHYALAWFRQAPGKEREGVSCIDSDGNPFYADSVKGRFTGSRDNAKNTVYLQMNSLKLEDTAVYYCAAGLWYGRSLNSFDYDYWGQGTQVTVSS | 9.77e-05 s⁻¹ | 0.000364 s⁻¹ |  |  | 
aSA3-Fc (Fc fusion) QVQLVESGGGLVQPGGSLRLSCAASGFTSDHYALAWFRQAPGKEREGVSCIDSDGNPFYADSVKGRFTGSRDNAKNTVYLQMNSLKLEDTAVYYCAAGLWYGRSLNSFDYDYWGQGTQVTVSS |  |  | 1.44e-05 s⁻¹ | 8.26e-05 s⁻¹ | 0.74 nM
